The values that follow come from patent US5268275, “Vitamin K-dependent carboxylase” (The University of North Carolina at Chapel Hill, dated 1993).

In test [1] the target is T1, bovine vitamin K-dependent carboxylase (94,000 Mr protein from bovine liver microsomes) (bovine) (UniProt Q07175).
T1 sequence: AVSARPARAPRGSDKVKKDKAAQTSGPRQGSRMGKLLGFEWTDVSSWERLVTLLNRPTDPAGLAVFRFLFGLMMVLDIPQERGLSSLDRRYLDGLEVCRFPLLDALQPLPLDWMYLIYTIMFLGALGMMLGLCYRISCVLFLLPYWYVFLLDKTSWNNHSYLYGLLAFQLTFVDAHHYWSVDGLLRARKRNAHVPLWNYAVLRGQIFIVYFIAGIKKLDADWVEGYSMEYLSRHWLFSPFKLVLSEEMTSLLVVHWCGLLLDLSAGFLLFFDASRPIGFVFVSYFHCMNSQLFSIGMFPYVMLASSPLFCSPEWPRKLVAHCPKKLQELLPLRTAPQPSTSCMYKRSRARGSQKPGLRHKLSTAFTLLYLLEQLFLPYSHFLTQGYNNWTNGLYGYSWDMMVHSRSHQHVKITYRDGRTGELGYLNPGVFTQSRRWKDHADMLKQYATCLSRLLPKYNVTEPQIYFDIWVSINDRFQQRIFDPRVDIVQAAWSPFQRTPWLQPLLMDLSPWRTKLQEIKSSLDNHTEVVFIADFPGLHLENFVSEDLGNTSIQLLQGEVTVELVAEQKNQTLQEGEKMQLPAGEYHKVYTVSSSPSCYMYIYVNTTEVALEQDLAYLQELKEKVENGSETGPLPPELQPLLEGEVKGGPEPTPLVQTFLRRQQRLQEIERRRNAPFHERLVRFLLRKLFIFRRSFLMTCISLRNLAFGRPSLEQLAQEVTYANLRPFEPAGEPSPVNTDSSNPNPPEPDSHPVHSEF

The target of test [2] is T2, bovine vitamin K-dependent carboxylase (94,000 Mr protein from bovine liver microsomes) (bovine, UniProt Q07175).
T2 sequence: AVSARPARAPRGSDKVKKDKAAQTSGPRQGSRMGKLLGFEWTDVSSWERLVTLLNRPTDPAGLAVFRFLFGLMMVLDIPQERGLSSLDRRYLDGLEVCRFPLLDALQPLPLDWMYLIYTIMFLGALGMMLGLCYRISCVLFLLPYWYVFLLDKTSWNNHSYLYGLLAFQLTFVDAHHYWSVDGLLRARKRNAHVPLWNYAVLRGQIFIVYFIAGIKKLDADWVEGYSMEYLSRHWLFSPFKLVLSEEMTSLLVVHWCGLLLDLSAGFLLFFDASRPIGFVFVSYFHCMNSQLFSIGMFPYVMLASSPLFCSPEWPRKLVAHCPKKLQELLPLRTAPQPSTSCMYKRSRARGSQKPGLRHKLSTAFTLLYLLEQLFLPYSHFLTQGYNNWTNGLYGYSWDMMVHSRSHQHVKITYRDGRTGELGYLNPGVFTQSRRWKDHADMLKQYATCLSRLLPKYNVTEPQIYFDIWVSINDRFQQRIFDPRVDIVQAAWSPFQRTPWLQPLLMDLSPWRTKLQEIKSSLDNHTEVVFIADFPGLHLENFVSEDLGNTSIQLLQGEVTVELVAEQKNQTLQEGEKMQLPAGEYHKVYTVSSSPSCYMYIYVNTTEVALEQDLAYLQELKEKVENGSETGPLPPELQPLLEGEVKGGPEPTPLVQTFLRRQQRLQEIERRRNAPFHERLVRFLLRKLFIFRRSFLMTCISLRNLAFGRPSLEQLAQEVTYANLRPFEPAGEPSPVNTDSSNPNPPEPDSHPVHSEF
Briefly: competition of cross-linking of 125I-FIXQ/S to the carboxylase, 100-fold excess of proFIX19. From the text: In order to evaluate the binding specificity of FIXQ/S and attain an independent estimate of the molecular weight of the carboxylase, we cross-linked ^125I-FIXQ/S to 60-fold affinity-purified material (FIG. 1, lane 3). […] The minor bands in lane 2 were unaffected by competition (lane 1). By subtracting the molecular weight of FIXQ/S (7,000 M_r) from the estimated size of the cross-linked complex we estimate that the size of the protein to which the FIXQ/S peptide binds is approximately 94,000 M_r.

“bovine vitamin K-dependent carboxylase (94,000 Mr protein from bovine liver microsomes) (from UniProt Q07175) (enzyme)”: in the test with peptide FLEEL, the specific activity, 14CO2 incorporation into FLEEL (cpm/mg protein/hr) was 2.4e+09. AVFLDHENANKILNRPKRY [Peptide proFIX19]: in test [1], the stimulation of the incorporation of CO2 into FLEEL was 13 fold. Moreover, the binding result in test [2] is listed as “binds”.
